Data on six molecules can be found in article PMC3618327, “Genetic and Biochemical Characterization of the MinC-FtsZ Interaction in Bacillus subtilis” (PLoS ONE, 2013).

B2: His6-FtsZ, wild-type Bacillus subtilis FtsZ (natural protein, B. subtilis, UniProt P17865 1-382, looked up)
chain: MLEFETNIDGLASIKVIGVGGGGNNAVNRMIENEVQGVEYIAVNTDAQALNLSKAEVKMQIGAKLTRGLGAGANPEVGKKAAEESKEQIEEALKGADMVFVTAGMGGGTGTGAAPVIAQIAKDLGALTVGVVTRPFTFEGRKRQLQAAGGISAMKEAVDTLIVIPNDRILEIVDKNTPMLEAFREADNVLRQGVQGISDLIATPGLINLDFADVKTIMSNKGSALMGIGIATGENRAAEAAKKAISSPLLEAAIDGAQGVLMNITGGTNLSLYEVQEAADIVASASDQDVNMIFGSVINENLKDEIVVTVIATGFIEQEKDVTKPQRPSLNQSIKTHNQSVPKREPKREEPQQQNTVSRHTSQPADDTLDIPTFLRNRNKRG
notes: FtsZ of Bacillus subtilis, the ftsZ gene cloned into pET28a; also called WT; FtsZ^WT; source: E. coli BL21(DE3)-RIL, purified (two-step ammonium sulfate and GTP+Ca2+ precipitation); not shown: His6, N-terminal, kept

Data set [1] has as its target T1, MinC-His6, wild-type Bacillus subtilis MinC (B. subtilis, UniProt Q01463 1-226).
T1 sequence (looked up): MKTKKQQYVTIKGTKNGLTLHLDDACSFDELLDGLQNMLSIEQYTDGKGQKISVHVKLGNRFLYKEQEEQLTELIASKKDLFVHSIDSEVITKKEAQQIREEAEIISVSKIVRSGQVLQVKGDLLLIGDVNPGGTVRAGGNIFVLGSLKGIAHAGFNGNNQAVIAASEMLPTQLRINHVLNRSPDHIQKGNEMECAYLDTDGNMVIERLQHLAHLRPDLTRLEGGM
In words: cell-based or functional assay.

Data set [2] deals with the molecule itself. Nature of the data set: sedimentation of polymers; 7 µM FtsZ in Mes/NaOH 50 mM, MgCl2 10 mM, KCl 133 mM, DEAE-dextran 0.6 mg/mL, pH 6.5, GTP 2 mM, room temperature, 100.000 rpm 15 min; pellet and supernatant on SDS-PAGE.
The target in data set [3] is B2. In words: other fluorescence titration; intrinsic Trp fluorescence of 1 µM MinC Y44W with 0.5-3 µM FtsZ in solution; Tris/HCl 20 mM, KCl 100 mM, EDTA 5 mM, pH 7.5; excitation 295 nm, emission 320-360 nm; the interaction was inhibited by salt (1 M KCl). Particulars: both partners purified.

B1: His6-FtsZ R376T (natural protein, B. subtilis, UniProt P17865 1-382, looked up)
chain: MLEFETNIDGLASIKVIGVGGGGNNAVNRMIENEVQGVEYIAVNTDAQALNLSKAEVKMQIGAKLTRGLGAGANPEVGKKAAEESKEQIEEALKGADMVFVTAGMGGGTGTGAAPVIAQIAKDLGALTVGVVTRPFTFEGRKRQLQAAGGISAMKEAVDTLIVIPNDRILEIVDKNTPMLEAFREADNVLRQGVQGISDLIATPGLINLDFADVKTIMSNKGSALMGIGIATGENRAAEAAKKAISSPLLEAAIDGAQGVLMNITGGTNLSLYEVQEAADIVASASDQDVNMIFGSVINENLKDEIVVTVIATGFIEQEKDVTKPQRPSLNQSIKTHNQSVPKREPKREEPQQQNTVSRHTSQPADDTLDIPTFLTNRNKRG
notes: FtsZ of Bacillus subtilis, mutant in the C-terminal peptide (CTP); source: E. coli BL21(DE3)-RIL, purified (two-step ammonium sulfate and GTP+Ca2+ precipitation); not shown: His6, N-terminal, kept
Take B1: in data set [1], the “light scattering signal of FtsZ polymerization with MinC (7 µM FtsZ, 20 µM MinC) relative to the signal in the absence of MinC” value came to 70%. Moreover, the binding result in data set [2] is recorded as “binds”.
Take B2: the binding result in data set [2] is listed as “binds”.

B3: His6-FtsZ D287V (natural protein, B. subtilis, UniProt P17865 1-382, looked up)
chain: MLEFETNIDGLASIKVIGVGGGGNNAVNRMIENEVQGVEYIAVNTDAQALNLSKAEVKMQIGAKLTRGLGAGANPEVGKKAAEESKEQIEEALKGADMVFVTAGMGGGTGTGAAPVIAQIAKDLGALTVGVVTRPFTFEGRKRQLQAAGGISAMKEAVDTLIVIPNDRILEIVDKNTPMLEAFREADNVLRQGVQGISDLIATPGLINLDFADVKTIMSNKGSALMGIGIATGENRAAEAAKKAISSPLLEAAIDGAQGVLMNITGGTNLSLYEVQEAADIVASASVQDVNMIFGSVINENLKDEIVVTVIATGFIEQEKDVTKPQRPSLNQSIKTHNQSVPKREPKREEPQQQNTVSRHTSQPADDTLDIPTFLRNRNKRG
notes: FtsZ of Bacillus subtilis, mutant from the error-prone PCR library; source: E. coli BL21(DE3)-RIL, purified (two-step ammonium sulfate and GTP+Ca2+ precipitation); not shown: His6, N-terminal, kept
With B3, in data set [2], the binding result was “binds”.

B4: His6-FtsZ T111A (natural protein, B. subtilis, UniProt P17865 1-382, looked up)
chain: MLEFETNIDGLASIKVIGVGGGGNNAVNRMIENEVQGVEYIAVNTDAQALNLSKAEVKMQIGAKLTRGLGAGANPEVGKKAAEESKEQIEEALKGADMVFVTAGMGGGTGAGAAPVIAQIAKDLGALTVGVVTRPFTFEGRKRQLQAAGGISAMKEAVDTLIVIPNDRILEIVDKNTPMLEAFREADNVLRQGVQGISDLIATPGLINLDFADVKTIMSNKGSALMGIGIATGENRAAEAAKKAISSPLLEAAIDGAQGVLMNITGGTNLSLYEVQEAADIVASASDQDVNMIFGSVINENLKDEIVVTVIATGFIEQEKDVTKPQRPSLNQSIKTHNQSVPKREPKREEPQQQNTVSRHTSQPADDTLDIPTFLRNRNKRG
notes: FtsZ of Bacillus subtilis, promiscuous mutant in the N-terminal subdomain; source: E. coli BL21(DE3)-RIL, purified (two-step ammonium sulfate and GTP+Ca2+ precipitation); not shown: His6, N-terminal, kept
With B4, the binding result in data set [2] is given as “binds”.

B5: His6-FtsZ K243R (natural protein, B. subtilis, UniProt P17865 1-382, looked up)
chain: MLEFETNIDGLASIKVIGVGGGGNNAVNRMIENEVQGVEYIAVNTDAQALNLSKAEVKMQIGAKLTRGLGAGANPEVGKKAAEESKEQIEEALKGADMVFVTAGMGGGTGTGAAPVIAQIAKDLGALTVGVVTRPFTFEGRKRQLQAAGGISAMKEAVDTLIVIPNDRILEIVDKNTPMLEAFREADNVLRQGVQGISDLIATPGLINLDFADVKTIMSNKGSALMGIGIATGENRAAEAAKRAISSPLLEAAIDGAQGVLMNITGGTNLSLYEVQEAADIVASASDQDVNMIFGSVINENLKDEIVVTVIATGFIEQEKDVTKPQRPSLNQSIKTHNQSVPKREPKREEPQQQNTVSRHTSQPADDTLDIPTFLRNRNKRG
notes: as for B3
For the molecule B5, the binding result in data set [2] is reported as “binds”.

B6: MinC Y44W (tryptophan mutant of Bacillus subtilis MinC) (natural protein, B. subtilis, UniProt Q01463 1-226, looked up)
chain: MKTKKQQYVTIKGTKNGLTLHLDDACSFDELLDGLQNMLSIEQWTDGKGQKISVHVKLGNRFLYKEQEEQLTELIASKKDLFVHSIDSEVITKKEAQQIREEAEIISVSKIVRSGQVLQVKGDLLLIGDVNPGGTVRAGGNIFVLGSLKGIAHAGFNGNNQAVIAASEMLPTQLRINHVLNRSPDHIQKGNEMECAYLDTDGNMVIERLQHLAHLRPDLTRLEGGM
notes: MinC of Bacillus subtilis with tryptophan at position 44 of the N-terminal domain; The methods name both His6-MinC (pET28a) and MinC-His6 (pET24b); also called tryptophan mutant MinC Y44W
For the molecule B6, the Kd in data set [3] was about 1000 nM.
